Results: PMC11067744

Molecular target: YenB (UniProt B6A880)
Assay: SEC-MALS

UniProt B6A880, sequence (B6A880 whole entry): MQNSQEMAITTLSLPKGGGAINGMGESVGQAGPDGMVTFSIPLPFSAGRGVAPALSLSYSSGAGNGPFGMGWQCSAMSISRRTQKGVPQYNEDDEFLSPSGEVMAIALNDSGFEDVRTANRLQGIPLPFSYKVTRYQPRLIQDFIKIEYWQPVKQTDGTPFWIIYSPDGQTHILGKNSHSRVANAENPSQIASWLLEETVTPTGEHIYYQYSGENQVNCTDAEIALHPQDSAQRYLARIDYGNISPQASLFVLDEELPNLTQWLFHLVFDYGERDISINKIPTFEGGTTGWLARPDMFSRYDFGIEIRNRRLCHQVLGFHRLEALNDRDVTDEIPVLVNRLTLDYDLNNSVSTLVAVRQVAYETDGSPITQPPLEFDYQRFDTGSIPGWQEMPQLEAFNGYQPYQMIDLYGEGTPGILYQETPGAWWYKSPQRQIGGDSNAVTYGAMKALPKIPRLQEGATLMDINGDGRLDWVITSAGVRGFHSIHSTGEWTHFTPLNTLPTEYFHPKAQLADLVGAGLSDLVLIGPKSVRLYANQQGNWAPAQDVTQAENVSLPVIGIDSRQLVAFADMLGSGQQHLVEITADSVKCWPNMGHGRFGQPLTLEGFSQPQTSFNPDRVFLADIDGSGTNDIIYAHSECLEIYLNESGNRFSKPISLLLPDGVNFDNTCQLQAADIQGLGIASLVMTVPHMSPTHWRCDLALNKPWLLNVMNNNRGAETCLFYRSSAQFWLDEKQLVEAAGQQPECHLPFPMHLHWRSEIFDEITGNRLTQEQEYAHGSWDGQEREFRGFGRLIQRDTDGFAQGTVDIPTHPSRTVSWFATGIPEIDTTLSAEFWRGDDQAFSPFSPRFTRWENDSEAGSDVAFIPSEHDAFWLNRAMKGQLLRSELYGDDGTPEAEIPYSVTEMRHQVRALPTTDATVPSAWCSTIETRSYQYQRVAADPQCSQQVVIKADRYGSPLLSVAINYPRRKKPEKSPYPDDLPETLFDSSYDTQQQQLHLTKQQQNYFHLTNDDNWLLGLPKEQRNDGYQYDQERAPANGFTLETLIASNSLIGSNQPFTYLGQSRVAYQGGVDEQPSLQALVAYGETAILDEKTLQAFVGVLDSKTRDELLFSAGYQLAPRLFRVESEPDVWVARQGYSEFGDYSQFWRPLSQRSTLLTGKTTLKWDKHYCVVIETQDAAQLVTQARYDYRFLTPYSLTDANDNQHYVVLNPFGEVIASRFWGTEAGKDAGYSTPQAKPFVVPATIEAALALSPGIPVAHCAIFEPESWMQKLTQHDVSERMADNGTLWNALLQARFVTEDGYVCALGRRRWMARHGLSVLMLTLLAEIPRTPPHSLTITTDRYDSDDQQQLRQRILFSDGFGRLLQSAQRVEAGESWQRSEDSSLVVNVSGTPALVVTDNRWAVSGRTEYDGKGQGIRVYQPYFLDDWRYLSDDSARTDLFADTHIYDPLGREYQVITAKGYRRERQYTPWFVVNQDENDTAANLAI

YenC3^CTD (domain or fragment)
stoichiometry N: 1

YenC3^NTD (domain or fragment)
stoichiometry N: 1
